Legend:
N-C3 = molecular target: T1, N-C3 (Homo sapiens, UniProt Q13018); assay: SPR kinetics of patient sera autoantibodies over immobilized N-C3; conditions: patient autoantibodies in sera binding to immobilized N-C3
T1 construct: the N-terminus to and including CTLD3 (N-C3); no tag is printed; made in house; host or cells: HEK 293-EBNA1
Description: Quantitation of serum antibody concentrations was performed on the Proteon XPR-36 (Bio-Rad) SPR instrument where the initial binding rates of purified human anti-PLA2R binding to N-C3 were used as standard curve to determine the concentration of anti-PLA2R in the unknown serum samples.

[1] = tested on: human anti-PLA2R autoantibodies; assay: Western blotting of PLA2R fragments with human anti-PLA2R autoantibodies; type: binding
[2] = Sedimentation velocity (analytical ultracentrifugation); type: physicochemical; conditions: for Frictional ratio (f/f0): from Mass derived from MALLS
Description: The experiments were performed using double sector cells and a rotor speed of 74,500 g for N-C8 and 116,500 g for N-C3, taking 150 scans at 1.5 minutes intervals at a wavelength of 280 nm and at a temperature of 20° C. The sedimenting boundaries were analyzed using the program Sedfit v8.7.

[3] = Dual polarisation interferometry, pH dependent conformational change; type: physicochemical; conditions: pH range 5.0 to 7.2 screened; thickness of protein layer
Description: Dual polarisation interferometry was used to provide quantitative information on the thickness, the refractive index and density of the immobilized PLA2R layer with the capability to measure conformational change in real time. The DPI experiments were performed on a Farfield AnaLight instrument. […] N-C8 and N-C3 were regenerated between the different pHs with running buffer pH 7.2. Analysis of the raw data and determination of density, thickness and mass per unit area was achieved using the AnaLight® Bio200 analysis software (Farfield Scientific).

[4] = tested on: purified anti-PLA2R antibody; conditions: pH 6.2 (tight) vs pH 7.2 (extended)
[5] = Hydrodynamic radius from QELS; type: physicochemical; conditions: pH 7.4
[6] = tested on: anti-PLA2R autoantibodies in patient sera; assay: N-C3 inhibition ELISA (autoantibody binding to N-C8); design: species or system human; conditions: N-C3 9.0 μg ml-1; 43 PLA2R-positive sera
Description: The ELISA method was a variation on the standard assay previously described. Briefly, PLA2R (N-C8) at 125 ng ml-1 was coated onto ELISA plates overnight and plates blocked with Superblock (Thermo Scientific). 50 μl of 1:100 dilution of patient serum plus 50 μl of either buffer or NC-3 fragment to give a final concentration in the well of 9.0 μg ml-1, 0.9 μg ml-1, 0.09 μg ml-1 and 0.009 μg ml-1 were preincubated for 2 hours at room temperature before adding to the ELISA plate for a further 2 hours with shaking. Following extensive washing, anti-human IgG-HRP at 1:25,000 dilution in assay buffer was added to all wells for 2 hour incubation. Following washing, the plate was developed by adding substrate and the reaction terminated at 5 minutes by addition of 1 M H2SO4. Plates were read at 450 nm and inhibition curves constructed. The concentration of 9.0 μg ml-1 was used to compare the inhibition profile of 43 different sera previous reported as anti-PLA2R positive.

T1 sequence (Q13018 21-643 limits assumed): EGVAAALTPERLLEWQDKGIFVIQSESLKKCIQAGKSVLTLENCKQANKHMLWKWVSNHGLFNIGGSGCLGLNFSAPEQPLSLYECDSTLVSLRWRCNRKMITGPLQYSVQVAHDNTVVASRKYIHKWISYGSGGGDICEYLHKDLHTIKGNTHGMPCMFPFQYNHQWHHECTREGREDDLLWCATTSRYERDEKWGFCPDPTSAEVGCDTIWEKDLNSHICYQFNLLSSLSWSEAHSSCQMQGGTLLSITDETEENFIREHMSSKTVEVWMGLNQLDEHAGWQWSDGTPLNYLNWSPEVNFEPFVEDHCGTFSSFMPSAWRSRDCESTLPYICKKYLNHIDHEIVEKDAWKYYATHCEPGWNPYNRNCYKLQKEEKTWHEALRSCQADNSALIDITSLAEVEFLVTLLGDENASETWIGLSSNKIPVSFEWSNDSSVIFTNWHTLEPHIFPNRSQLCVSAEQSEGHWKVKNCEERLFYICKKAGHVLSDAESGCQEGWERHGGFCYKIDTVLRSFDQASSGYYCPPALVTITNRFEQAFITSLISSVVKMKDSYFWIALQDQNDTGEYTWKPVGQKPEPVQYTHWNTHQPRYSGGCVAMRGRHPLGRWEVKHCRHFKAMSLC

Kd (N-C3) [nM] | Substance | recognition by human anti-PLA2R autoantibodies [1] | Sedimentation coefficient (S20, w) ([2]; pH 6.2) | sedimentation coefficient ([2]; pH 6.2) [s] | Frictional ratio (f/f0) ([2]; pH 6.2) | sedimentation coefficient ([2]; pH 7.2) [s] | Sedimentation coefficient (S20, w) ([2]; pH 7.4) | Frictional ratio (f/f0) ([2]; pH 7.4) | Hydrodynamic radius [5] [nm] | further results
0.085 | YLNHIDHEIVEKDAWK [compound 4, Linker between CTLD1 and CTLD2] | – | – | – | – | – | – | – | – | –
0.032 | YYATHCEPGWNPYNR [compound 5, Linker between CTLD1 and CTLD2] | – | – | – | – | – | – | – | – | –
0.043 | EDDLLWCATTSR [compound 3, Fibronectin type II domain peptide] | – | – | – | – | – | – | – | – | –

Further lines, the substance ahead of its results:

Substance | Kd (N-C3) [nM] | recognition by human anti-PLA2R autoantibodies [1] | Sedimentation coefficient (S20, w) ([2]; pH 6.2) | sedimentation coefficient ([2]; pH 6.2) [s] | Frictional ratio (f/f0) ([2]; pH 6.2) | sedimentation coefficient ([2]; pH 7.2) [s] | Sedimentation coefficient (S20, w) ([2]; pH 7.4) | Frictional ratio (f/f0) ([2]; pH 7.4) | Hydrodynamic radius [5] [nm] | further results
N-C8: recombinant full length extracellular PLA2R | – | recognized | 9.23 ± 0.25 | 9.2 | 1.32 | 8.1 | 8.08 ± 0.21 | 1.51 | 6.25 ± 0.19 | pH region where the transition in conformation occurred [3]: ~6.2 pH; difference in affinity of anti-PLA2R binding between conformations [4]: no difference in affinity
N-C2: recombinant PLA2R fragment, the N-terminus to and including CTLD2 | – | neither N-C2 nor C3 fragments were recognized | – | – | – | – | – | – | – | –
N-C3: recombinant PLA2R fragment, the N-terminus to and including CTLD3 | – | recognized | 5.35 ± 0.10 | 5.3 | 1.39 | 5.3 | 5.29 ± 0.09 | 1.38 | 3.81 ± 0.23 | patient sera in which binding of autoantibodies to N-C8 was effectively competed [6]: approximately 90%
